According to the nanobody polyreactivity screen of Harvey et al. (2022):

test: yeast display, Sf9 membrane polyspecificity reagent, FACS + sequencing; frameworks hold sequencing errors
Method in brief: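 Using colony PCR, genes from sorted yeast display clones were amplified, then sequenced on MiSeq at 2 × 250 and filtered by CDR length. The clones had been stained with 10% biotinylated, detergent-solubilized Sf9 membrane reagent for 1 hour at 4 °C and sorted by FACS into low and high (top ~1%) gates on anti-HA and streptavidin fluorescence. Polyreactivity labels come from the gate of origin.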

Sequence	polyreactivity (PSR sort gate)
QFQLVESGGGLVQAGGSLRLSCAASGFIFSNNAMGWYRQAPGKDRELVAAISKSGGGTSYADSVKGRFTISRDNAKNTVYLQMNSLKPDDTAVYYCAKEWRKKTDYDYWGQGTQVTVSS	high polyreactivity
QFQLVESGGGLVQAGGSLRLSCAASGFIFYKYAMGGYRQAPGKERELVAAISSGGSPYYADSVKGRFTISRDNAKNTVYLQMNSLKPEDTAVYYCNKVYRSYRSGFYGGDYWGQGTQVTVSS	high polyreactivity
QFQLVESGGGLVQAGGSLRLSCAASGFIIKFYAMGLYRQAPGKERELVATITFSSGTTYYADSVKGRFTISRDTAKNTVYLQLNSLKPEDTAVYYCAAERGVDDSARNGDYDYWGQGTQVTVSS	low polyreactivity
QFQLVESGGGLVQAGGSLRLSCAASGFTFDFYAMGWYRQAPGKERELVAAISKNDGTTYYADSVKGRFTISRDNAKNTVYLQMNSLKQEDTAVYYCAAPNWRDYYSSGQGTQVTVSS	low polyreactivity
QFQLVESGGGLVQAGGSLRLSCAASGFTFDGYAMGWYRQAPGKERELVAAISDSGDSTYYADSVKGRFTISRDNAKITVYLQMNSLKPEDTAVYYCAAGLGYYWSDYFAYDYWGQGTQVTVSS	low polyreactivity
QFQLVESGGGLVQAGGSLRLSCAASGFTFPYNGMGWYRQAPGKERELVAAISYGGGGKYYADSVKGRFTISRDNAKNTVYLQMNSLKPEDTAVYYCATDDPLSQINEQGMDYWGQGTQVTVSS	low polyreactivity
QFQLVESGGGLVQAGGSLRLSCAASGGTLYIYAMGWYRKAPGKERELVAAIRGRGGSTYADSVKGRFTISRDNAKNTVYLQMNSLKPVDTAVYYCAAYARQRSNTIYYDYWGQGTQVTVSS	high polyreactivity
QFQLVESGGGLVQAGGSLRLSCAASGIFVGYTMGWYRQAPGKEREFVAAIRWTDGSTYYADSVKGRFTISRDNAKNTVYLQMNSLKPEDTAVYYCAADSHDPARYYYGDEVEDEYWGQGTQVTVSS	low polyreactivity
QFQLVESGGGLVQAGGSLRLSCAASGIIFGAYVMGWYRQAPGKERELVAVISWSSTSTYYADSVKGRFTISRDNAKNTVYLQMNSLKPEDTAVYYCNARYLRRGDYWGQGTQVTVSS	low polyreactivity
QFQLVESGGGLVQAGGSLRLSCAASGIIFTTYVMGWYRQAPGKERELVAAISRGGRTYYADSVKGRFTSSRDNAKNTVYLQMNSLKPEDTAVYYCARVAYKGYGEDDYWGQGTQVTVSS	high polyreactivity
QFQLVESGGGLVQAGGSLRLSCAASGIIFVSYAMGGYIQAPGKETEFVAGINWNGGSTYYADSVKGRFTISRDNAKNTVYLQMNSLKPEDTAVYYCNAENYRVRQRSSVKYDYWGHGTQVTVSS	low polyreactivity
QFQLVESGGGLVQAGGSLRLSCAASGITFQYYAMGWYRQAPGKERDFVAAISWRSGRTYYADSVKGRFTISRDNAKNTVYLQMNSLKPEDTEVYYCAAVVHIQRSTRDYWGQGTQVTVSS	high polyreactivity
QFQLVESGGGLVQAGGSLRLSCAASGLTFKYYGMGWYRQAPGKERELVATISSGGRTNYADSVKGRFTISRDNAKNTVYLQMNSLKPEDTEVYYCNRPRWYGGSPYYYWGQGTQVTVSS	high polyreactivity
QFQLVESGGGLVQAGGSLRLSCAASGRIFFSNAMGWYRQAPGKERELVASITGGDDTNYADSVKGRFTISRDNAKNSVYLQMNSLKPEDTAFYYCAARAIPSYRWVYRFAPKYDYWGQGTQVTVSS	low polyreactivity
QFQLVESGGGLVQAGGSLRLSCAASGRIFRYYSMGCYIQSPGKERELVAAITRGGSTNYADSVKGRFTISGDNANNNVYLQMNSLKPEDSAVYYCAVRGCYTWPTYNYWGHGTQVTVSS	high polyreactivity
QFQLVESGGGLVQAGGSLRLSCAASGRIWWNAKGWYRQAPGNEREMVAAIRWSGGIKRYADSVKGRFTISRDNAKNTVYLQMNSLKREDTAVYYCDARLGGSIRSKFDYWGQGTQVTVSS	high polyreactivity
QFQLVESGGGLVQAGGSLRLSCAASGRTFWWYAMGWYRQAPGKERELVAAITSRGTTYYADSVKGRFTISRDNAKNTVYLQMNSLKPEDTAVYYCNAVQATRYTDYDYWGQGTQVTVSS	high polyreactivity
QFQLVESGGGLVQAGGSLRLSCAASGSIFKYNAMGWYRQAPGKEREFVAAISSSSGNTYYADSVKGRFTISRDNAKNTLYFQMNSLKPEDTAVYYCAADASRPRIPEMYYWGQGTQVTVSS	high polyreactivity
QFQLVESGGGLVQAGGSLRLSCAASGSIFLAYDMGWYRQAPGKERELVAGITSGGTTYYADSVKGRFTISRDNAKNTVYLQMNSLKPADTAVYYCAALLYTPYYYWGQGTQVTVSS	low polyreactivity
QFQLVESGGGLVQAGGSLRLSCAASGSIFRGYTMGWYRQAPGKERELVAAISWSGGSTYYADSVKGRFTISRDNAKNTVYLQMNSLKPEDTAVYFCAAGDYYHRIFLWYDYWGQGTQVTVSS	low polyreactivity
QFQLVESGGGLVQAGGSLRLSCAASGSIFYTYVMGWYRQAPGKERELVAVISWSSTSTYYADSVKGRFTISRDNAKNTVYLQMNSLKPEDTAVYYCAAGVHRYRPGHGYDDGGYYWGQGTQVTVSS	low polyreactivity
